Consider 2 molecules from patent US20050143559.

Where two headings read alike, the source gives them in different places.

Data set [1] has as its system tryparedoxin peroxidase isolated from Crithidia fasciculata.
Data set [2] has as its target tryparedoxin peroxidase isolated from Crithidia fasciculata. This is another data set of the same source.

Turning to “authentic tryparedoxin I isolated from Crithidia fasciculata”, the “specific activity (coupled NADPH consumption assay)” value in data set [1] is on record as 2.3 U/mg for the authentic enzyme.

For TQSLPSSFLASLEHHHHHH [recombinant tryparedoxin II containing a His tag (expressed from pET/TXN II H6 in E. coli BL21(DE3))], the “specific activity (coupled NADPH consumption assay)” value in data set [2] worked out at 7.7 U/mg.
